Data: patent publication US8524666 (IBCC, dated 2013)

Experiments:
Test in all cases: GST pull-down from transfected MCF-7 lysate, western blot
[1] = molecular target: T1, vimentin deletion mutant containing aa 134-466 of SEQ ID NO: 1 (human, UniProt P08670 134-464)
T1 construct: Tested in lysate of transfected MCF-7 cells; not shown: EGFP and linker of the pEGFP-C3 vector
Procedure: (§1) Full length vimentin or its deletion mutant constructs were transfected into MCF-7 cells. After incubation cells were lysed and lysate was used in pull-down reaction using GST-tagged CD44-HABD proteins immobilised onto glutathione sepharose beads. After pull-down, beads were washed and bound proteins were eluted. Eluates were analysed on western blot. A, vimentin deletion mutants used in pull-down reactions. B, WB of pull-down reactions from vimentin and its deletion mutant transfected cell lysates.
(§2) CD44-3MUT binding of vimentin deletion mutants was tested using GST pull-down from cell lysates. MCF-7 cells were transfected with vimentin deletion-constructs on 15 cm cell culture plates using 20 µg DNA with polyethyleneimine (PEI; DNA and PEI were used in ratio 1:2). Transfected cells were incubated at 37° C. for 72 h. Thereafter, adherent cells were washed once with cold PBS and lysed in 2 ml of lysis buffer containing 50 mM Tris pH 8.0, 50 mM NaCl, 2% CHAPS and protease inhibitor cocktail (Roche). For removal of insoluble material the lysates were centrifuged 14000 rpm 30 min at 4° C. Resulting lysates were used in GST pull-down. For pull-down 10 µg GST, GST-HABD or GST-3MUT were immobilised onto glutathione sepharose 4 fast flow beads (GE Healthcare) in 0.5 ml of PBS. Cell lysates were precleared by incubating the lysates with GST-coupled glutathione beads for 2 h at 4° C. with continuous rotation. After preclearing, the lysates (0.6 vol per reaction) were incubated over-night at 4° C. with GST, GST-HABD or GST-3MUT proteins immobilised onto 25 µl glutathione sepharose beads. After pull-down reactions, beads were washed 4 times with 0.3 ml vol wash buffer containing 50 mM Tris pH 8.0, 150 mM NaCl and protease inhibitor cocktail. Bound proteins were eluted 3 times with 25 µl volume elution buffer 20 mM reduced glutathione, 50 mM Tris pH 8.0. Eluates were pooled and after SDS PAAG pull-down reactions were analysed by western blotting with anti-His specific pAb (H-15) (Santa Cruz Biotechnology) or anti-vimentin specific pAb (Genway).

[2] = molecular target: T2, vimentin deletion mutant containing aa 407-466 of SEQ ID NO: 1 (human, UniProt P08670 407-464)
T2 construct: Tested in lysate of transfected MCF-7 cells; not shown: EGFP and linker of the pEGFP-C2 vector
T2 sequence (P08670 other isoform, or with tags, fused parts or gaps mutant): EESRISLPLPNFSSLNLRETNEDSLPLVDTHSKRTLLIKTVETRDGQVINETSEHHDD
Procedure: as §1, §2

[3] = molecular target: T3, vimentin deletion mutant containing aa 97-466 of SEQ ID NO: 1 (human, UniProt P08670 97-464)
T3 construct: Tested in lysate of transfected MCF-7 cells; The forward oligo carries an ATG start codon before the fragment; not shown: C-terminal Myc and His tags of the pcDNA3.1/MycHis B vector
T3 sequence (P08670 other isoform, or with tags, fused parts or gaps mutant): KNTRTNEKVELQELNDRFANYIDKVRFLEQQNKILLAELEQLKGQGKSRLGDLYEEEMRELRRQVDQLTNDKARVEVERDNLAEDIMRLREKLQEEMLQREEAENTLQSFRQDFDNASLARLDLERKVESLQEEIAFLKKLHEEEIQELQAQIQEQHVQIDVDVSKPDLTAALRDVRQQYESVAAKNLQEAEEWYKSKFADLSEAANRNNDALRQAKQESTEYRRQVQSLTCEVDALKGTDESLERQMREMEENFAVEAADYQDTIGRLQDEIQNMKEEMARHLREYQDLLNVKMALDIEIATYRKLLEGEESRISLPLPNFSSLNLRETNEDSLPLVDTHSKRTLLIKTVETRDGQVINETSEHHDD
Procedure: as §1, §2

Measured: binding result

T1 sequence (P08670 other isoform, or with tags, fused parts or gaps mutant): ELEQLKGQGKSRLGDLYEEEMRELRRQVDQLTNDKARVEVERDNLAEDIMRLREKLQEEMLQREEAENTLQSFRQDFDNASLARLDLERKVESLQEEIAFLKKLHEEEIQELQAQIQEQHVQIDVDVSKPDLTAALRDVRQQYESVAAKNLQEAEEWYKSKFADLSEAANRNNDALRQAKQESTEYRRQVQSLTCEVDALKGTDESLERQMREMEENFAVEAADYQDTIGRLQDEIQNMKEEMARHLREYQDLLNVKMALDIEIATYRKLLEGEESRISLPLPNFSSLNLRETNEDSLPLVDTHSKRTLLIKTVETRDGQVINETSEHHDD

B1: GST tagged CD44-HABD R41AR78SY79S mutant (CD44-3MUT) (other, not shown: a dimerising Fc or GST; small tags and cut ends)
chain: QIDLNMTCRFAGVFHVEKNGAYSISRTEAADLCKAFNSTLPTMAQMEKALSIGFETCSSGFIEGHVVIPRIHPNSICAANNTGVYILTSNTSQYDTYCFNASAPPEEDCTSV
notes: Immobilised on glutathione sepharose beads in the pull-downs; also called GST-3MUT; GST-SB101
no binding: [1] | [2] | [3]
